target: human CD3 (TCR/CD3 complex) on T-cells (human) (UniProt P07766); experiment: FACS staining of CD3+ Jurkat cells with polymer fractions

percent of Jurkat cells with positive staining [%] | Substance
> 90 | scOKT3-γ?IgM pentamers
80 | scOKT3-γ?IgM monomers

target: human CD3 (TCR/CD3 complex) on T-cells (human) (UniProt P07766); experiment: cell-based or functional assay

IL-2 production [pg/mL] | INF-γ-production [pg/mL] | T-cell proliferation, immobilized Ak [cpm × 10^3] [cpm] | T-cell proliferation, soluble Ak [cpm × 10^3] [cpm] | TNF-α-production [pg/mL] | Substance
52 | 222 | 4000 | 1800 | 166 | scOKT3-γ?IgM, WT Monomers (from UniProt P01871 218-435) (Fc fusion)
73 | 189 | 3700 | 2400 | 169 | scOKT3-γ?IgM, C575S Monomers (from UniProt P01871 218-435) (Fc fusion)
467 | 1380 | 12500 | 9500 | 960 | monoclonal OKT3 antibody

Further lines, the substance ahead of its results:

Substance | IL-2 production [pg/mL] | INF-γ-production [pg/mL] | T-cell proliferation, immobilized Ak [cpm × 10^3] [cpm] | T-cell proliferation, soluble Ak [cpm × 10^3] [cpm] | TNF-α-production [pg/mL]
scOKT3-γ?IgM, WT Pentamers/hexamers (from UniProt P01871 218-435) (Fc fusion) | 42 | 232 | 3500 | 2100 | 158
scOKT3-γ?IgM, WT (from UniProt P01871 218-435) (Fc fusion) | 47 | 244 | 4600 | 2600 | 167
scOKT3-γ?IgM, C575S (from UniProt P01871 218-435) (Fc fusion) | 65 | 202 | 3300 | 1900 | 149

target: human CD3 (TCR/CD3 complex) on T-cells (human) (UniProt P07766); experiment: FACS staining of CD3+ Jurkat cells

percent of Jurkat cells with positive staining [%] | Substance
> 90 | monoclonal OKT3 antibody

— patent US20040175786A1
